{
  "source": "the supplement of paper PMC10567573",
  "parents": {"B1": {"name": "ZNF263 (parent)", "chain": "EKPYKCPECGEIFAHSSNLLRHQR"}},
  "data": [
    {"variants_of": "B1", "test": "protein stability index of a GFP-peptide fusion (GPS, HEK-293T) (PSI 1-6); higher = more stable", "conditions": "c terminus: a fixed tail appended", "values": [
      {"variant": "EKPYKCPECGEILAHSSNLLRHQR", "note": "[F13L]", "protein stability index": 2.54},
      {"variant": "EKPYKCPECGEIMAHSSNLLRHQR", "note": "[F13M]", "protein stability index": 2.1},
      {"variant": "EKPYKCPECGEINAHSSNLLRHQR", "note": "[F13N]", "protein stability index": 1.51},
      {"variant": "EKPYKCPECGEIPAHSSNLLRHQR", "note": "[F13P]", "protein stability index": 2.62},
      {"variant": "EKPYKCPECGEIQAHSSNLLRHQR", "note": "[F13Q]", "protein stability index": 2.33},
      {"variant": "EKPYKCPECGEIRAHSSNLLRHQR", "note": "[F13R]", "protein stability index": 3.24},
      {"variant": "EKPYKCPECGEISAHSSNLLRHQR", "note": "[F13S]", "protein stability index": 2.75},
      {"variant": "EKPYKCPECGEIVAHSSNLLRHQR", "note": "[F13V]", "protein stability index": 2.12},
      {"variant": "EKPYKCPECGEIWAHSSNLLRHQR", "note": "[F13W]", "protein stability index": 1.5},
      {"variant": "EKPYKCPECGEIYAHSSNLLRHQR", "note": "[F13Y]", "protein stability index": 2.19},
      {"variant": "EKPYKCPECGEIFCHSSNLLRHQR", "note": "[A14C]", "protein stability index": 2.37},
      {"variant": "EKPYKCPECGEIFDHSSNLLRHQR", "note": "[A14D]", "protein stability index": 3.67},
      {"variant": "EKPYKCPECGEIFEHSSNLLRHQR", "note": "[A14E]", "protein stability index": 4.13},
      {"variant": "EKPYKCPECGEIFFHSSNLLRHQR", "note": "[A14F]", "protein stability index": 2.57},
      {"variant": "EKPYKCPECGEIFGHSSNLLRHQR", "note": "[A14G]", "protein stability index": 3.09},
      {"variant": "EKPYKCPECGEIFHHSSNLLRHQR", "note": "[A14H]", "protein stability index": 3.17},
      {"variant": "EKPYKCPECGEIFIHSSNLLRHQR", "note": "[A14I]", "protein stability index": 2.27},
      {"variant": "EKPYKCPECGEIFKHSSNLLRHQR", "note": "[A14K]", "protein stability index": 2.82},
      {"variant": "EKPYKCPECGEIFLHSSNLLRHQR", "note": "[A14L]", "protein stability index": 2.75},
      {"variant": "EKPYKCPECGEIFMHSSNLLRHQR", "note": "[A14M]", "protein stability index": 2.29},
      {"variant": "EKPYKCPECGEIFNHSSNLLRHQR", "note": "[A14N]", "protein stability index": 2.7},
      {"variant": "EKPYKCPECGEIFPHSSNLLRHQR", "note": "[A14P]", "protein stability index": 2.7},
      {"variant": "EKPYKCPECGEIFQHSSNLLRHQR", "note": "[A14Q]", "protein stability index": 2.45},
      {"variant": "EKPYKCPECGEIFRHSSNLLRHQR", "note": "[A14R]", "protein stability index": 2.57},
      {"variant": "EKPYKCPECGEIFSHSSNLLRHQR", "note": "[A14S]", "protein stability index": 2.38},
      {"variant": "EKPYKCPECGEIFTHSSNLLRHQR", "note": "[A14T]", "protein stability index": 2.58},
      {"variant": "EKPYKCPECGEIFVHSSNLLRHQR", "note": "[A14V]", "protein stability index": 3.17},
      {"variant": "EKPYKCPECGEIFWHSSNLLRHQR", "note": "[A14W]", "protein stability index": 2.69},
      {"variant": "EKPYKCPECGEIFYHSSNLLRHQR", "note": "[A14Y]", "protein stability index": 2.79},
      {"variant": "EKPYKCPECGEIFAASSNLLRHQR", "note": "[H15A]", "protein stability index": 2.3},
      {"variant": "EKPYKCPECGEIFACSSNLLRHQR", "note": "[H15C]", "protein stability index": 3.26},
      {"variant": "EKPYKCPECGEIFADSSNLLRHQR", "note": "[H15D]", "protein stability index": 3.96},
      {"variant": "EKPYKCPECGEIFAESSNLLRHQR", "note": "[H15E]", "protein stability index": 3.3},
      {"variant": "EKPYKCPECGEIFAFSSNLLRHQR", "note": "[H15F]", "protein stability index": 2.94},
      {"variant": "EKPYKCPECGEIFAGSSNLLRHQR", "note": "[H15G]", "protein stability index": 2.55},
      {"variant": "EKPYKCPECGEIFAISSNLLRHQR", "note": "[H15I]", "protein stability index": 1.7},
      {"variant": "EKPYKCPECGEIFALSSNLLRHQR", "note": "[H15L]", "protein stability index": 1.95},
      {"variant": "EKPYKCPECGEIFAMSSNLLRHQR", "note": "[H15M]", "protein stability index": 1.56},
      {"variant": "EKPYKCPECGEIFANSSNLLRHQR", "note": "[H15N]", "protein stability index": 3.62},
      {"variant": "EKPYKCPECGEIFAPSSNLLRHQR", "note": "[H15P]", "protein stability index": 2.54},
      {"variant": "EKPYKCPECGEIFAQSSNLLRHQR", "note": "[H15Q]", "protein stability index": 3.15},
      {"variant": "EKPYKCPECGEIFARSSNLLRHQR", "note": "[H15R]", "protein stability index": 2.31},
      {"variant": "EKPYKCPECGEIFASSSNLLRHQR", "note": "[H15S]", "protein stability index": 4.34},
      {"variant": "EKPYKCPECGEIFATSSNLLRHQR", "note": "[H15T]", "protein stability index": 3.55},
      {"variant": "EKPYKCPECGEIFAVSSNLLRHQR", "note": "[H15V]", "protein stability index": 2.49},
      {"variant": "EKPYKCPECGEIFAWSSNLLRHQR", "note": "[H15W]", "protein stability index": 2.65},
      {"variant": "EKPYKCPECGEIFAYSSNLLRHQR", "note": "[H15Y]", "protein stability index": 1.8},
      {"variant": "EKPYKCPECGEIFAHASNLLRHQR", "note": "[S16A]", "protein stability index": 2.36},
      {"variant": "EKPYKCPECGEIFAHCSNLLRHQR", "note": "[S16C]", "protein stability index": 2.73},
      {"variant": "EKPYKCPECGEIFAHDSNLLRHQR", "note": "[S16D]", "protein stability index": 2.47},
      {"variant": "EKPYKCPECGEIFAHESNLLRHQR", "note": "[S16E]", "protein stability index": 3.04},
      {"variant": "EKPYKCPECGEIFAHFSNLLRHQR", "note": "[S16F]", "protein stability index": 3.53},
      {"variant": "EKPYKCPECGEIFAHGSNLLRHQR", "note": "[S16G]", "protein stability index": 2.48},
      {"variant": "EKPYKCPECGEIFAHHSNLLRHQR", "note": "[S16H]", "protein stability index": 2.55},
      {"variant": "EKPYKCPECGEIFAHISNLLRHQR", "note": "[S16I]", "protein stability index": 2.96},
      {"variant": "EKPYKCPECGEIFAHKSNLLRHQR", "note": "[S16K]", "protein stability index": 1.71},
      {"variant": "EKPYKCPECGEIFAHLSNLLRHQR", "note": "[S16L]", "protein stability index": 3.26},
      {"variant": "EKPYKCPECGEIFAHMSNLLRHQR", "note": "[S16M]", "protein stability index": 3.32},
      {"variant": "EKPYKCPECGEIFAHNSNLLRHQR", "note": "[S16N]", "protein stability index": 1.33},
      {"variant": "EKPYKCPECGEIFAHPSNLLRHQR", "note": "[S16P]", "protein stability index": 2.81},
      {"variant": "EKPYKCPECGEIFAHQSNLLRHQR", "note": "[S16Q]", "protein stability index": 2.45},
      {"variant": "EKPYKCPECGEIFAHRSNLLRHQR", "note": "[S16R]", "protein stability index": 2.3},
      {"variant": "EKPYKCPECGEIFAHTSNLLRHQR", "note": "[S16T]", "protein stability index": 1.84},
      {"variant": "EKPYKCPECGEIFAHVSNLLRHQR", "note": "[S16V]", "protein stability index": 2.83},
      {"variant": "EKPYKCPECGEIFAHWSNLLRHQR", "note": "[S16W]", "protein stability index": 3.44},
      {"variant": "EKPYKCPECGEIFAHYSNLLRHQR", "note": "[S16Y]", "protein stability index": 3.26},
      {"variant": "EKPYKCPECGEIFAHSANLLRHQR", "note": "[S17A]", "protein stability index": 2.43},
      {"variant": "EKPYKCPECGEIFAHSCNLLRHQR", "note": "[S17C]", "protein stability index": 4.32},
      {"variant": "EKPYKCPECGEIFAHSDNLLRHQR", "note": "[S17D]", "protein stability index": 3.33},
      {"variant": "EKPYKCPECGEIFAHSENLLRHQR", "note": "[S17E]", "protein stability index": 4.22},
      {"variant": "EKPYKCPECGEIFAHSFNLLRHQR", "note": "[S17F]", "protein stability index": 2.85},
      {"variant": "EKPYKCPECGEIFAHSGNLLRHQR", "note": "[S17G]", "protein stability index": 2.63},
      {"variant": "EKPYKCPECGEIFAHSHNLLRHQR", "note": "[S17H]", "protein stability index": 3.51},
      {"variant": "EKPYKCPECGEIFAHSINLLRHQR", "note": "[S17I]", "protein stability index": 2.89},
      {"variant": "EKPYKCPECGEIFAHSLNLLRHQR", "note": "[S17L]", "protein stability index": 2.79},
      {"variant": "EKPYKCPECGEIFAHSMNLLRHQR", "note": "[S17M]", "protein stability index": 2.12},
      {"variant": "EKPYKCPECGEIFAHSNNLLRHQR", "note": "[S17N]", "protein stability index": 2.75},
      {"variant": "EKPYKCPECGEIFAHSPNLLRHQR", "note": "[S17P]", "protein stability index": 2.66},
      {"variant": "EKPYKCPECGEIFAHSQNLLRHQR", "note": "[S17Q]", "protein stability index": 1.98},
      {"variant": "EKPYKCPECGEIFAHSRNLLRHQR", "note": "[S17R]", "protein stability index": 2.42},
      {"variant": "EKPYKCPECGEIFAHSTNLLRHQR", "note": "[S17T]", "protein stability index": 2.06},
      {"variant": "EKPYKCPECGEIFAHSVNLLRHQR", "note": "[S17V]", "protein stability index": 2.08},
      {"variant": "EKPYKCPECGEIFAHSWNLLRHQR", "note": "[S17W]", "protein stability index": 2.24},
      {"variant": "EKPYKCPECGEIFAHSYNLLRHQR", "note": "[S17Y]", "protein stability index": 2.47},
      {"variant": "EKPYKCPECGEIFAHSSALLRHQR", "note": "[N18A]", "protein stability index": 4.13},
      {"variant": "EKPYKCPECGEIFAHSSCLLRHQR", "note": "[N18C]", "protein stability index": 3.75},
      {"variant": "EKPYKCPECGEIFAHSSDLLRHQR", "note": "[N18D]", "protein stability index": 4.05},
      {"variant": "EKPYKCPECGEIFAHSSELLRHQR", "note": "[N18E]", "protein stability index": 4.7},
      {"variant": "EKPYKCPECGEIFAHSSFLLRHQR", "note": "[N18F]", "protein stability index": 2.54},
      {"variant": "EKPYKCPECGEIFAHSSGLLRHQR", "note": "[N18G]", "protein stability index": 3.05},
      {"variant": "EKPYKCPECGEIFAHSSHLLRHQR", "note": "[N18H]", "protein stability index": 4.44},
      {"variant": "EKPYKCPECGEIFAHSSILLRHQR", "note": "[N18I]", "protein stability index": 2.37},
      {"variant": "EKPYKCPECGEIFAHSSLLLRHQR", "note": "[N18L]", "protein stability index": 2.67},
      {"variant": "EKPYKCPECGEIFAHSSMLLRHQR", "note": "[N18M]", "protein stability index": 2.82}
    ]}
  ]
}
